How the values were obtained:
Assay in all cases: mass spectrometry
Settings in all cases: 37 °C (72 h incubation), 50 mM NaCl plus 50 mM buffer, 50 mM MES (pH 5.0-7.5) or 50 mM HEPES (pH 8.0-9.0), folded
[1] = biological target: His141 (UniProt position 141, VFSEFHDADAQ)
[2] = biological target: His114 (UniProt position 114, KLYLTHIDAEV)
[3] = biological target: His149 (UniProt position 149, DAQNSHSYCFE)
[4] = biological target: His124 (UniProt position 124, VEGDTHFPDYE)
[5] = biological target: His45 (UniProt position 45, VIMGRHTWESI)
[6] = Binary complex with methotrexate (DHFR-MTX; five-fold molar excess of MTX added during preparation)
[7] = Ternary complex with folate and NADP+ (DHFR-folate-NADP+; five-fold molar excess of each ligand added during preparation)
[8] = Ternary complex with methotrexate and NADPH (DHFR-MTX-NADPH; five-fold molar excess of each ligand added during preparation)

“Dihydrofolate reductase (DHFR) (Escherichia coli)” was tested, and the pKa [1, 6] was 8.12 (±0.14), the pKa [1, 7] was 8.14 (±0.11) and the pKa [1, 8] was 8.29 (±0.10). The pKa ([1]; apo-DHFR (no ligand)) was 8.04 (±0.08), the pKa [2, 7] was 7.17 (±0.16) and the pKa [2, 8] was 6.99 (±0.10). The pKa ([2]; apo-DHFR (no ligand)) was 6.84 (±0.20), the pKa [3, 6] was 6.13 (±0.13) and the pKa [3, 7] was 6.84 (±0.17). The pKa [3, 8] was 6.17 (±0.10), the pKa ([3]; apo-DHFR (no ligand)) was 6.51 (±0.04) and the pKa [4, 6] was 7.02 (±0.06). For the same substance, the pKa [4, 7] was 7.61 (±0.19), the pKa [4, 8] was 7.17 (±0.20) and the pKa ([4]; apo-DHFR (no ligand)) was 7.60 (±0.03). The pKa [5, 6] was 7.15 (±0.04), the pKa [5, 7] was 7.30 (±0.07) and the pKa [5, 8] was 7.43 (±0.03). For the same substance, the pKa ([5]; apo-DHFR (no ligand)) was 6.99 (±0.07).
